± gives the uncertainty stated by the source.

A short description of this data set: self-splicing fitness, log relative to wild type (ln ratio); higher = more splicing; Tetrahymena group I intron in knt gene, E. coli kanamycin selection, DiMSum; sequences stand for … in CUCUCU…GGAGGGAAAAGUUAUCAGGCAUGCACCUGGUAGCUAGUCUUUAAACCAAUAGAUUGCAUCGGUUUAAAAGGCAAGACCGUCAAAUUGCGGGAAAGGGGUCAACAGCCGUUCAGUACCAAGUCUCAGGGGAAACUUUGAGAUGGCCUUGCAAAGGGUAUGGUAAUAAGCUGACGGACAUGGUCCUAACCACGCAGCCAAGUCCUAAGUCAACAGAUCUUCUGUUGAUAUGGAUGCAGUUCACAGACUAAAUGUCGGUCGGGGAAGAUGUAUUCUUCUCAUAAGAUAUAGUCGGACCUCUCCUUAAUGGGAGCUAGCGGAUGAAGUGAUGCAACACUGGAGCCGCUGGGAACUAAUUUGUAUGCGAAAGUAUAUUGAUUAGUUUUGGAGUACUCGUGGUCG
The method, boiled down:
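Colonies from six replicate transformations of E. coli BL21(DE3) were pooled and amplicon-sequenced on an Illumina HiSeq 2500. The library placed an intron with all eight P1ex-region nucleotides randomised inside the knt kanamycin-resistance gene on pET-22b(+), and cells grew overnight at 37°C or 30°C on LB agar with or without 25 μg/mL kanamycin (plus 100 μg/mL carbenicillin, 50 μM IPTG, 0.2% rhamnose). Fitness is the DiMSum error-weighted combination of wild-type-normalised replicate fold changes, kanamycin versus none.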

In the case of CAAUAGCAAUAUUACGGCCG, the “self-splicing fitness (ln)” value runs as follows: (30 °C) 0.102 ± 0.12; (37 °C) 0.341 ± 0.16.

As for GACCAGCAAUAUUACGGGAG, the “self-splicing fitness (ln)” value is, setting by setting: (30 °C) -0.677 ± 0.053; (37 °C) -0.0889 ± 0.065.

Consider AGAAAGCAAUAUUACGUCCU, for which the “self-splicing fitness (ln)” value (30 °C) is -0.0571 ± 0.065 and the “self-splicing fitness (ln)” value (37 °C) was determined as 0.432 ± 0.089.

Turning to UCCCAGCAAUAUUACGUUGC, the “self-splicing fitness (ln)” value is -3.5 ± 0.27 (30 °C) and -2.06 ± 0.27 (37 °C).

Turning to ACGCAGCAAUAUUACGGUUU, the “self-splicing fitness (ln)” value by setting is: (30 °C) -0.937 ± 0.054; (37 °C) -0.076 ± 0.083.

For the sequence GAUGAGCAAUAUUACGGGCA, the “self-splicing fitness (ln)” value (30 °C) is -1.87 ± 0.2 and the “self-splicing fitness (ln)” value (37 °C) is -1.88 ± 0.28.

With AGAAAGCAAUAUUACGUAUA, the “self-splicing fitness (ln)” value (30 °C) is -2.13 ± 0.12 and the “self-splicing fitness (ln)” value (37 °C) is -1.66 ± 0.13.

In the case of AACCAGCAAUAUUACGACGU, the “self-splicing fitness (ln)” value is, setting by setting: (30 °C) -0.111 ± 0.046; (37 °C) 0.409 ± 0.06.

Regarding AUUGAGCAAUAUUACGAUUC, the “self-splicing fitness (ln)” value runs as follows: (30 °C) -2.51 ± 0.22; (37 °C) -2.86 ± 0.47.

With AUAUAGCAAUAUUACGUAGG, the “self-splicing fitness (ln)” value was -3.06 ± 0.21 (30 °C) and -0.744 ± 0.16 (37 °C).

Regarding ACCGAGCAAUAUUACGGCGG, the “self-splicing fitness (ln)” value is -3.59 ± 0.3 (30 °C) and -2.58 ± 0.39 (37 °C).

In the case of UGUAAGCAAUAUUACGUAUG, the “self-splicing fitness (ln)” value reads like this: (30 °C) -1.11 ± 0.093; (37 °C) -0.727 ± 0.12.

On to GCCUAGCAAUAUUACGCGUG, for which the “self-splicing fitness (ln)” value is -4.17 ± 0.42 (30 °C) and -0.758 ± 0.17 (37 °C).

On to UUCGAGCAAUAUUACGGUGC, for which the “self-splicing fitness (ln)” value (30 °C) is -3.24 ± 0.31 and the “self-splicing fitness (ln)” value (37 °C) is -2.29 ± 0.29.

CCGGAGCAAUAUUACGGGUG: the “self-splicing fitness (ln)” value runs as follows: (30 °C) -1.61 ± 0.093; (37 °C) -1.09 ± 0.1.

On to CAGCAGCAAUAUUACGUCGU, for which the “self-splicing fitness (ln)” value is, setting by setting: (30 °C) -3.42 ± 0.18; (37 °C) -0.9 ± 0.09.

Consider UCUAAGCAAUAUUACGGCUU, for which the “self-splicing fitness (ln)” value is, setting by setting: (30 °C) -4.01 ± 0.37; (37 °C) -1.22 ± 0.26.

GAAGAGCAAUAUUACGGCAC: the “self-splicing fitness (ln)” value was -1.31 ± 0.12 (30 °C) and -0.934 ± 0.16 (37 °C).

With CCGAAGCAAUAUUACGUAUA, the “self-splicing fitness (ln)” value (37 °C) is -2.51 ± 0.41.

On to GGUUAGCAAUAUUACGCAGU, for which the “self-splicing fitness (ln)” value by setting is: (30 °C) -1.5 ± 0.27; (37 °C) -1.67 ± 0.3.

For the sequence AGGCAGCAAUAUUACGCAGG, the “self-splicing fitness (ln)” value is -1.39 ± 0.084 (30 °C) and -1.17 ± 0.1 (37 °C).

On to CAUCAGCAAUAUUACGUGAA, for which the “self-splicing fitness (ln)” value is -0.729 ± 0.055 (30 °C) and -0.211 ± 0.09 (37 °C).

Consider UAGUAGCAAUAUUACGCGAC, for which the “self-splicing fitness (ln)” value (37 °C) is -1.69 ± 0.29.

As for UUCAAGCAAUAUUACGUUCU, the “self-splicing fitness (ln)” value (30 °C) was -2.22 ± 0.14 and the “self-splicing fitness (ln)” value (37 °C) is -2.14 ± 0.17.

Consider AUAAAGCAAUAUUACGAACU, for which the “self-splicing fitness (ln)” value (30 °C) is 0.222 ± 0.095 and the “self-splicing fitness (ln)” value (37 °C) turned out to be 0.227 ± 0.11.

Regarding CGAUAGCAAUAUUACGGGUU, the “self-splicing fitness (ln)” value runs as follows: (30 °C) -3.84 ± 0.21; (37 °C) -3.04 ± 0.24.

As for CUCAAGCAAUAUUACGGACA, the “self-splicing fitness (ln)” value reads like this: (30 °C) -2.5 ± 0.35; (37 °C) -2.1 ± 0.32.

Take CCACAGCAAUAUUACGUGAG: the “self-splicing fitness (ln)” value was -0.847 ± 0.051 (30 °C) and -0.739 ± 0.065 (37 °C).

For the sequence AGAGAGCAAUAUUACGAAAG, the “self-splicing fitness (ln)” value runs as follows: (30 °C) -4.41 ± 0.27; (37 °C) -2.42 ± 0.22.

For the sequence GUCGAGCAAUAUUACGGACG, the “self-splicing fitness (ln)” value (30 °C) is -1.43 ± 0.18 and the “self-splicing fitness (ln)” value (37 °C) was -0.738 ± 0.21.

As to UGACAGCAAUAUUACGCAGU, the “self-splicing fitness (ln)” value reads like this: (30 °C) -2.63 ± 0.15; (37 °C) -2.13 ± 0.27.

For CUACAGCAAUAUUACGGGCA, the “self-splicing fitness (ln)” value was -2.76 ± 0.18 (30 °C) and -2.21 ± 0.21 (37 °C).

On to CUGAAGCAAUAUUACGCGGC, for which the “self-splicing fitness (ln)” value reads like this: (30 °C) -0.11 ± 0.081; (37 °C) 0.053 ± 0.11.

On to UGCCAGCAAUAUUACGAUUG, for which the “self-splicing fitness (ln)” value (30 °C) is -1.63 ± 0.078 and the “self-splicing fitness (ln)” value (37 °C) is -0.196 ± 0.086.

The record behind these values is the supplement of paper PMC7877785.
